Measurements reported in patent US20220177587A1, “METHODS AND USES OF VARIANT CD80 FUSION PROTEINS AND RELATED CONSTRUCTS” (Alpine Immune Sciences, Inc., priority 2018, published 2022).
Substitutions are numbered along the chain they refer to. In names and notes the source's numbering stands.

B1: variant CD80 IgV-Fc D46V/L85Q (Fc fusion)
chain: VIHVTKEVKEVATLSCGHNVSVEELAQTRIYWQKEKKMVLTMMSGVMNIWPEYKNRTIFDITNNLSIVILALRPSDEGTYECVVQKYEKDAFKREHLAEVTLSVKAD
B2: variant CD80 IgV-Fc E35D/M47L/V68M (Fc fusion)
chain: B1 chain with E35D, V46D, M47L, V68M, Q85L
B3: variant CD80 IgV-Fc E35D/V68M/L85Q (Fc fusion)
chain: B1 chain with E35D, V46D, V68M
B4: variant CD80 IgV-Fc D46V/M47L/V68M (Fc fusion)
chain: B1 chain with M47L, V68M, Q85L
B5: variant CD80 IgV-Fc E35D/D46V/M47L/L85Q (Fc fusion)
chain: B1 chain with E35D, M47L
B6: variant CD80 IgV-Fc E35D/D46V/M47L/V68M/L85Q (Fc fusion)
chain: B1 chain with E35D, M47L, V68M
B7: variant CD80 IgV-Fc E35D/N48K (Fc fusion)
chain: B1 chain with E35D, V46D, N48K, Q85L
B8: variant CD80 IgV-Fc E35D/N48K/K89N (Fc fusion)
chain: B1 chain with E35D, V46D, N48K, Q85L, K89N
B9: variant CD80 IgV-Fc M47V/N48K/K89N (Fc fusion)
chain: B1 chain with V46D, M47V, N48K, Q85L, K89N
B10: variant CD80 IgV-Fc M47L/V68M/A71G/D90G (Fc fusion)
chain: B1 chain with V46D, M47L, V68M, A71G, Q85L, D90G
B11: variant CD80 IgV-Fc H18Y/V68M/A71G/D90G (Fc fusion)
chain: B1 chain with H18Y, V46D, V68M, A71G, Q85L, D90G

Tests used:
human PD-L1 (human) [1] = target: human PD-L1 (human) (UniProt Q9NZQ7); experiment: flow cytometry, CHO cells expressing huPD-L1
human CTLA-4 (human) [2] = target: human CTLA-4 (human) (UniProt P16410); experiment: flow cytometry, CHO cells expressing huCTLA-4
CD28 (human) [3] = target: CD28 (human) (UniProt P10747); experiment: flow cytometry, Jurkat/IL2 reporter cells (CD28)
human PD-L1 (human) [4] = target: human PD-L1 (human) (UniProt Q9NZQ7); experiment: flow cytometry; PD-L1 MFI over CD28 MFI of the same protein
human PD-L1 (human) [5] = target: human PD-L1 (human) (UniProt Q9NZQ7); experiment: flow cytometry, CHO/huPD-L1 cells; vs WT CD80 ECD-Fc (Abcam)
human CTLA-4 (human) [6] = target: human CTLA-4 (human) (UniProt P16410); experiment: flow cytometry, CHO/huCTLA-4 cells; vs WT CD80 ECD-Fc (Abcam)
CD28 (human) [7] = target: CD28 (human) (UniProt P10747); experiment: flow cytometry, Jurkat cells (CD28); vs WT CD80 ECD-Fc (Abcam)
CD28 (human) [8] = target: CD28 (human) (UniProt P10747); experiment: flow cytometry, Jurkat cells (CD28)
human CTLA-4 (human) [9] = target: human CTLA-4 (human) (UniProt P16410); experiment: flow cytometry, CHO cells stably expressing CTLA4
human PD-L1 (human) [10] = target: human PD-L1 (human) (UniProt Q9NZQ7); experiment: flow cytometry, CHO cells stably expressing PD-L1
human PD-L1 (human) [11] = target: human PD-L1 (human) (UniProt Q9NZQ7); experiment: flow cytometry, MFI on PD-L1 cells over MFI on CD28 cells

Sequence of human CTLA-4 (human) (P16410 36-223): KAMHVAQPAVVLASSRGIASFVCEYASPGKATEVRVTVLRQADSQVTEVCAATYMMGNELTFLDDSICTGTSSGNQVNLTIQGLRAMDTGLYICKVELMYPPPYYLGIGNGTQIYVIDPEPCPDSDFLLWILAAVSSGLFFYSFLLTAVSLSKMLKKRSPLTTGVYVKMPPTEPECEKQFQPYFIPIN
Sequence of human PD-L1 (human) (Q9NZQ7 19-290): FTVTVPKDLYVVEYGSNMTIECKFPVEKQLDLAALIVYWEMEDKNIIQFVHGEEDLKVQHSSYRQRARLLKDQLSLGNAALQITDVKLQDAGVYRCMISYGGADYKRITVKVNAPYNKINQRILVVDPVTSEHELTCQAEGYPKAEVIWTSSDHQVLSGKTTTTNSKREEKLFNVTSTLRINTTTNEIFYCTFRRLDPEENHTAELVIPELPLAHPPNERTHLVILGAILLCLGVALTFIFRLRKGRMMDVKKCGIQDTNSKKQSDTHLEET

| Binder | MFI at 33.3 nM (human PD-L1 (human) [1]) [MFI] | MFI at 33.3 nM (human CTLA-4 (human) [2]) [MFI] | MFI at 33.3 nM (CD28 (human) [3]) [MFI] | Ratio of PDL1:CD28 (human PD-L1 (human) [4]) | Fold change to WT CD80 (human PD-L1 (human) [5]) [fold] | Fold change to WT CD80 (human CTLA-4 (human) [6]) [fold] | Fold change to WT CD80 (CD28 (human) [7]) [fold] | Fold change to WT CD80 (CD28 (human) [8]) [fold] | MFI at 33.3 nM (CD28 (human) [8]) [MFI] | Fold change to WT CD80 (human CTLA-4 (human) [9]) [fold] | MFI at 33.3 nM (human CTLA-4 (human) [9]) [MFI] | Fold change to WT CD80 (human PD-L1 (human) [10]) [fold] | MFI at 33.3 nM (human PD-L1 (human) [10]) [MFI] | Ratio of PDL1:CD28 (human PD-L1 (human) [11]) |
| --- | --- | --- | --- | --- | --- | --- | --- | --- | --- | --- | --- | --- | --- | --- |
| B1 | 2200 | 41900 | 131 | 16.8 | 17.2 | 1 | 0.2 |  |  |  |  |  |  |  |
| B2 | 27900 | 28600 | 1240 | 22.4 | 218 | 0.7 | 1.8 |  |  |  |  |  |  |  |
| B3 | 5970 | 42800 | 76.2 | 78.4 | 46.6 | 1.1 | 0.1 |  |  |  |  |  |  |  |
| B4 | 28000 | 34700 | 2180 | 12.8 | 219 | 0.9 | 3.1 |  |  |  |  |  |  |  |
| B5 | 7520 | 38200 | 268 | 28.1 | 58.8 | 0.9 | 0.4 |  |  |  |  |  |  |  |
| B6 | 28400 | 26200 | 464 | 61.2 | 222 | 0.6 | 0.7 |  |  |  |  |  |  |  |
| B7 | 6540 | 41300 | 194 | 33.7 | 51.1 | 1 | 0.3 |  |  |  |  |  |  |  |
| B8 | 5770 | 34700 | 411 | 14 | 45 | 0.9 | 0.6 |  |  |  |  |  |  |  |
| B9 | 2370 | 42100 | 366 | 6.5 | 18.5 | 1 | 0.5 |  |  |  |  |  |  |  |
| B10 |  |  |  |  |  |  |  | 82.2 | 3610 | 12.8 | 17400 | 714 | 31100 | 8.6 |
| B11 |  |  |  |  |  |  |  | 77.8 | 3410 | 16.4 | 22300 | 703 | 30700 | 9 |
